Data: the DeepSol protein solubility set

Experiment: soluble on expression in E. coli; label from the status in PepcDB or PDB records

Q: With “MFSVNNTHSSVSCSPSINSNSTSNEHYLRILTEWEKNSSPGEERGIAFNRLSQCFQNQEAVLNLSDLNLTSLPELPKHISALIVENNKLTSLPKLPAFLKELNADNNRLSVIPELPESLTTLSVRSNQLENLPVLPNHLTSLFVENNRLYNLPALPEKLKFLHVYYNRLTTLPDLPDKLEILCAQRNNLVTFPQFSDRNNIRQKEYYFHFNQITTLPESFSQLDSSYRINISGNPLSTRVLQSLQRLTSSPDYHGPQIYFSMSDGQQNTLHRPLADAVTAWFPENKQSDVSQIWHAFEHEEHANTFSAFLDRLSDTVSARNTSGFREQVAAWLEKLSASAELRQQSFAVAADATESCEDRVALTWNNLRKTLLVHQASEGLFDNDTGALLSLGREMFRLEILEDIARDKVRTLHFVDEIEVYLAFQTMLAEKLQLSTAVKEMRFYGVSGVTANDLRTAEAMVRSREENEFTDWFSLWGPWHAVLKRTEADRWAQAEEQKYEMLENEYSQRVADRLKASGLSGDADAEREAGAQVMRETEQQIYRQLTDEVLALRLSENGSRLHHS” as the sequence, how does the “soluble on expression in E. coli” value read?
A: not soluble

Q: Which “soluble on expression in E. coli” value does the source give for “MNIYVLMKRTFDTEEKIVIKNGAIYDGEAEFIINPYDEYAIEEAIQVRDAQGGEVTVVTVGGEDSEKELRTALAMGCDKAVLINIEDDVENGDQFTTAKVLAEYLKDKDADLILGGNVAIDGASGQVGPRVAEALNIPYVTTITKLEIDGTNVKIERDVEGDTEVVETSLPVLVTAQQGLNEPRYPSLPGIMKAKKKPLEELELDDLDLEEDDVEAKTKTIEIYLPPKKDAGKVLQGELQDQVKELVSLLHTEAKVI” here?
A: not soluble

Q: With “MGSDKIHHHHHHMEIHSSAAAEVFPVCRSLLGKLPAHSHNRSVAPTVCDYYPQIMKTYNSKMTTQHSSDIRNSQNISASFVTPHDAPVTSRKYVPKFNSNNHRIKTAAAFEKGSDIYHAVRPNYPNSVIELLNLSPNSRVLDIGCGTGKLTEQIAQQTSSVYALDPSKDMLDSFRSTLDIPSWQATAEQTAVSDSRFSTLTCAQTWHWVEPLAASAELDRISTDDAQLLLVWNTLDVSVPWVHRLSRIMHSGDTLAEGFIPHVAQPWELVSVLRGKHAQELYPDQIHTLAHTRSYWLRASEKTREKLTHNLSWYLTDHLELPSTSLVEIPYRFDAFLYKKALVKTQ” as the sequence, how does the “soluble on expression in E. coli” value read?
A: not soluble

Q: For “MIPDTEQELINQYLKKISKIPLLTPEEEKELARRAKQGDKEALKKLVESNLRFVVSVAKQYIGYGLPFSELIAAGNLGLLEAAKRFDPDRGVKFISYAVWWIRQAIMQALSQQTGAVRIPLKQSHIINKISHIYGELSKKLEREPSPEEIAEELSKQMIAKELEKELGREPTEEEIEERFKKEGYKITPEEVEKYLQVCRVPLSLDAPVGENEDTFFIDFLSKHGTAEVEEKVIQEVIQKEIDDLLSKLTDKERKVIELRFGLKGNEPKTLREIGEILGLSRERVRQLETRALRKLRSLAMKRHLKDFLS”, which “soluble on expression in E. coli” value is on record?
A: soluble

Q: With “MAHHHHHHMSFAGLQKRLKNKAVATTTTNSTPPSSDAKTDNIESSSSVYDVAAREARANHEERKRQRSPHDKENTAYNPTINERNGPADMLSDHPSVEKASSKTLTETEFLERRHLAEEVVLQCAEAMSRNMELAATSIDKIDIKKESEVYDMSGLPLPLCQFLEQRLQRSSDATAMLISTCEEEEHNLVSALRSPSNLPMLFPPQVEDFVTTLRTLWLALCWHWVMALRGKEGNEGKEVSENGWSYNVYLLSRHALPITVRNTRGRDVALALQAWQEAYRVRQNMLDFLAYILHDMGVVLRFSGDDASKGDENLRIVPPKIADSIFCMVQHLRRRDFTTVRQAYVELTMGTANWKLGLFSGGEVHMRRSMERIERRRIEHLLHNERAVRLLHVLRELIEFVQKNEVMLLHTGIFAREKSMKEHSP” as the sequence, how does the “soluble on expression in E. coli” value read?
A: not soluble

Q: Which “soluble on expression in E. coli” value does the source give for “MGSVRKASAWLGLVDDNDDERYYDDDYAEGQESGEAWVTDPRVKVASETAEEKGRRIGTVTPDSFRDARGIGELFRDGVPVIINLTAMEPTDAKRVVDFAAGLTFGLRGTIERVATRVFLLTPANTEIVSGEAAGRPTDGFFNQSLEHHHHHH” here?
A: not soluble

Q: For “MVKGPGLYTEIGKKARDLLYKDHNSDQKFSITTFSPAGVAITSTGTKKGDLLLGDVAFQSRRKNITTDLKVCTDSTFLITATVDEAAPGLRSIFSFKVPDQNSGKVELQYLHEYAGISTSMGLTQNPTVNFSGVIGSNVLAVGTDVSFDTKSGNFTKINAGLSFTKEDLIASLTVNDKGDLLNASYYHIVNPLFNTAVGAEVSHKLSSKDSTITVGTQHSLDPLTSVKARVNSAGIASALIQHEWKPKSFFTISGEVDTKSIDKSAKVGLALALKP”, which “soluble on expression in E. coli” value is on record?
A: soluble

Q: For “MGSDKIHHHHHHMAGTHLFHGCQAAPLLPESTPFYCTRTIFFKPAFYCVEGSGVKTNPMKINAGTPDSVNQQVIVIGAGVIGLANAVTLARRGFKVTVIDKEGVAAGASFGNAGHFATEQVFPLADPSLLPKLPKMLLDPLGPFRIRPAYFHRALPWFVRFIVNMMPARRQHNGNAIKALNARSMAATKELLTFCGRADLLVENGSLLVFETQDPRVMEQELALYNDAGIAVRLLSGDEARALEPDLSDAISGALWFTEVGHTPNPRAICEALADTLKALGGRIEIDSVCSLQGGNTPSVTTETGKVTKADKLLLCAGAWSRPLALKLGHRVPLETERGYHLMMPQHSGLKRPVASYERKFIITPMEDGTRLAGTVEFGGLNAPMSNARADCLLPHARVLLPKVFATARVSEGKRWMGFRPSLPDSLPVLGESQTPGVYFAFGHQHLGLTWAASSAELLGQLICGETPSIDLSPYCVKRFD”, which “soluble on expression in E. coli” value is on record?
A: not soluble

Q: Which “soluble on expression in E. coli” value does the source give for “GTSPIQTPINTMSQQYTLPPLPYPYDALQPYISQQIMELHHKKHHQTYVNGLNAALEAQKKAAEATDVPKLVSVQQAIKFNGGGHINHSLFWKNLAPEKSGGGKIDQAPVLKAAIEQRWGSFDKFKDAFNTTLLGIQGSGWGWLVTDGPKGKLDITTTHDQDPVTGAAPVFGVDMWEHAYYLQYLNDKASYAKGIWNVINWAEAENRYIAGDKGGHPFMKL” here?
A: soluble

Q: For “MQRGKVKWFNNEKGYGFIEVEGGSDVFVHFTAIQGEGFKTLEEGQEVSFEIVQGNRGPQAANVTKEA”, which “soluble on expression in E. coli” value is on record?
A: soluble

Q: For “MGSDKIHHHHHHMKHAFETLVGEVHAALQAGEQFTLGYSAEQSQFVRFNHAKVRQAGEVSQASAQLRLVRDGRQAEQQVTLSGDVQLDRQRLNVALEQLRQTLPLLALDPYLRLDENAWHSHSLQEPPLPALNEVLALLEREAGDLDLVGIYAAGPVCRGFASSFGAFGWHQANSFNVDWSLFHDNGQAVKANYAGQAWSADDFTARLRQAREQLGFLGRPAVTLKPGTYRAYLAPAAMDEVAGMLCWGGFSAQALATGNSALQRLYNGDARLSPLVSFTEQVSGSLSPAFSDEGAPRLDVPLIQQGEARQRLISARSAAEFELQANGADGYESPCALSLAPGNLASAQILERLGTGLYISNLWYLNYSDLPAARMTGLTRFATFWVEDGQIQGPVSTMRFDDSLYSLLGSQLEDLTQEREMILSTSTYGQRSTGSSHLPGALVKGLTLTL”, which “soluble on expression in E. coli” value is on record?
A: not soluble

Q: For “MTMRTYKNPYPDSEDAVEIRFDHCREDIAKAAQEYWREMTEAELDDLQEEIMRALAVSEWQNIWLTSAAFITVLAYHFHD”, which “soluble on expression in E. coli” value is on record?
A: not soluble

Q: Which “soluble on expression in E. coli” value does the source give for “MGHHHHHHSHMACYIYQLPSWVLDDLCRNMDALSEWDWMEFASYVITDLTQLRKIKSMERVQGVSITRELLWWWGMRQATVQQLVDLLCRLELYRAAQIILNWKPAPEIRCPIPAFPDSVK” here?
A: soluble

Q: With “MTMDFQITRRYPCSYLPGELARSRIVVTDDTLSDSNTYAQLIQQGYRRSGSLIYRPDCDYCHACIPVRIPVELFDPNRTQRRIWKRHQHLQIAWHPLHFDPVHFDLYQRYQKSRHTNGSMDQDDENGRKQYRDFLLKSTVDSFLVTFHENEQLRMVSIIDRLPDGLSPVYTFFEPDVPGSSYGTFNILWQTAQCRADRLPYLYLGYWIANSRKMHYKANFQPLQYLIDNQWQYRTTNRLEHHHHHH” as the sequence, how does the “soluble on expression in E. coli” value read?
A: not soluble

Q: For “MSLDLSVDRSSPVPLYFQLSQQLEAAIEHGALTPGSLLGNEIELAARLGLSRPTVRQAIQSLVDKGLLVRRRGVGTQVVHSKVRRPLELSSLYDDLEAAGQRPATKVLVNTVVPATAEIAAALGVAEDSEVHRIERLRLTHGEPMAYLCNYLPPGLVDLDTGQLEATGLYRLMRAAGITLHSARQSIGARAATSGEAERLGEDAGAPLLTMERTTFDDTGRAVEFGTHTYRPSRYSFEFQLLVRP”, which “soluble on expression in E. coli” value is on record?
A: soluble

Q: With “MRRYLEHLMIKLSEKGVFLASNNEIIAEEHFTGEIKKEEAKKGTIAWSILSSHNTSGNMDKLKIKFDSLASHDITFVGIVQTAKASGMERFPLPYVLTNCHNSLCAVGGTINGDDHVFGLSAAQRYGGIFVPPHIAVIHQYMREMMAGGGKMILGSDSHTRYGALGTMAVGEGGGELVKQLLNDTWDIDYPGVVAVHLTGKPAPYVGPQDVALAIIGAVFKNGYVKNKVMEFVGPGVSALSTDFRNSVDVMTTETTCLSSVWQTDEEVHNWLALHGRGQDYCQLNPQPMAYYDGCISVDLSAIKPMIALPFHPSNVYEIDTLNQNLTDILREIEIESERVAHGKAKLSLLDKVENGRLKVQQGIIAGCSGGNYENVIAAANALRGQSCGNDTFSLAVYPSSQPVFMDLAKKGVVADLIGAGAIIRTAFCGPCFGAGDTPINNGLSIRHTTRNFPNREGSKPANGQMSAVALMDARSIAATAANGGYLTSASELDCWDNVPEYAFDVTPYKNRVYQGFVKGATQQPLIYGPNIKDWPELGALTDNIVLKVCSKILDEVTTTDELIPSGETSSYRSNPIGLAEFTLSRRDPGYVSRSKATAELENQRLAGNVSELTEVFARIKQIAGQEHIDPLQTEIGSMVYAVKPGDGSAREQAASCQRVIGGLANIAEEYATKRYRSNVINWGMLPLQMAEVPTFEVGDYIYIPGIKAALDNPGTTFKGYVIHEDAPVTEITLYMESLTAEEREIIKAGSLINFNKNRQM” as the sequence, how does the “soluble on expression in E. coli” value read?
A: not soluble

Q: Which “soluble on expression in E. coli” value does the source give for “MKVKSISRFFSMKKVTLSFVTLFIGVGTIGSYNQYADASMKTQQTHVTKSSPTQKTTSNFKRSVKDTSVKSRATSIKRATSTKQAISPKTSSTKKTTIAKKSTTVNKTRTTTKTQPTIRKSSTTSTRSKTMPTSVKRTTSHKATTVSPTSKAKISTKTQQSTKSHTTSVKKNTTQLSKTKSPSTSTKSKTVQSSTTKAQPTLSTQVSTTTKAKQFSTPTTSKTDSSKSLVSLASTERKIDKYQSMTQLEKETTEGVDWRKDTKNTGNQVLIVAPHGGSIEQGTTELTKALADKGNYDYYSFEGIRPKNNSELHVTSTHYDDPTLNQMIKNRTATISIHGASGSEEIIYLGGPRSDLRNAIEKQLVARGFTVKVPPEYLGGQNNKNFINREDNNTGVQLELTTALRKAFFKNGDTSTKNRTNKENWTPTMEEFINALYEGINQTYSLEHHHHHH” here?
A: not soluble

Q: Which “soluble on expression in E. coli” value does the source give for “MGSDKIHHHHHHAQNNADDKYEILSLTDMFSLFKDSKNSVPQDYDEIYVPGYFYEPSFMYPSPLKKEFCCVAQWRIPNRNCKYLFLEDIFPQNKDSLKQASLELQKIKEKYGMRESAMYQDVPAGYNGIIAKWFTGRLFVLHCPRKLFNTVVSKKASLISIHKGRISDEKQITPDEGKFESSCFPQKGGMILIREDGCWYDDIKRNIDFLISPLINENFPTEFSKHVGREYSFLLEVVPKTGQIIPHLLLPKTLSTDEKMIVSYLEKQIRKFPENSFGPLITIDKKMLYGRYLKFIVKDEKFKIEDYLEY” here?
A: not soluble
